Experimental data: patent US20250382359A1 (BYOMASS, published 2025)

T1: Human GDF15 Fc (human, UniProt Q99988 195-308, limits assumed, biotinylated (EZ-Link Sulfo-NHS-Biotinylation Kit) in the SPR assay)
T1 construct: also called human GDF15-Fc fusion; biotinylated Human GDF15 Fc; not shown: Fc part
T1 sequence: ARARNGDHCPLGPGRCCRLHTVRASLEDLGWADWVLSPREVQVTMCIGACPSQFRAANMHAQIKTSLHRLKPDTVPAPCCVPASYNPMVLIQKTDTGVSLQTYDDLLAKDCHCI

T2: Mouse GDF15 Fc (mouse, UniProt Q9Z0J7 189-303, limits assumed)
T2 construct: also called mouse GDF15-Fc fusion; not shown: Fc part
T2 sequence (looked up): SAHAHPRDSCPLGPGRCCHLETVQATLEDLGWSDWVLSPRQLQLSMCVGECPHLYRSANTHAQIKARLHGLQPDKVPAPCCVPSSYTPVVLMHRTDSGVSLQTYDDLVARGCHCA

T3: Cyno GDF15 Fc (cyno, UniProt G7PWZ3 193-308, limits assumed)
T3 construct: also called cyno GDF15-Fc fusion; not shown: Fc part
T3 sequence: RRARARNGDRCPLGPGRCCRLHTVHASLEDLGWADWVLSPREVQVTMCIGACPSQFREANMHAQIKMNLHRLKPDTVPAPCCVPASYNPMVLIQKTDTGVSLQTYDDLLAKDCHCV

T4: GDF15 (ligand used in the GFRAL/RET cell assays) (UniProt Q99988 197-308, limits assumed)
T4 sequence (looked up): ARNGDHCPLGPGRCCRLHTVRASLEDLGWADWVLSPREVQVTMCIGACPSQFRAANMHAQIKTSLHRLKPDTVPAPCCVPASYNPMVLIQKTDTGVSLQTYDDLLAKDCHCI


Key:
Human GDF15 Fc [1] = biological target: T1, Human GDF15 Fc; assay: BLI Octet; antigen on sensor, 100 nM Fab (monovalent)
Mouse GDF15 Fc = biological target: T2, Mouse GDF15 Fc; assay: as above
Cyno GDF15 Fc = biological target: T3, Cyno GDF15 Fc; assay: as above
Human GDF15 Fc [2] = biological target: T1, Human GDF15 Fc; assay: SPR Biacore 8K; biotinylated antigen captured, Fab analyte
Procedure: Kinetic analysis was conducted at 25° C. in HBS-EP+running buffer (10 mM HEPES pH 7.4, 150 mM NaCl, 3 mM EDTA, 0.05% Surfactant P20) using a Biacore 8K optical biosensor (Cytiva, Marlborough, MA). The sample compartment was maintained at 10° C. for the duration of the experiment. The Biacore 8K can analyze up to 8 separate interactions in a single cycle.
Each experiment cycle began with an injection (300 s at 2 μL/min) overflow cells 1 and 2 of a 1:100 solution of biotin CAPture reagent (Cytiva) in running buffer. This was followed by an injection (45 s at 10.0 μL/min) of biotinylated human GDF15 (5 nM) overflow cell 2. […] The dissociation of the antibodies were monitored for 3420 s. Finally, an injection (120 s at 10 μL/min) of regeneration solution (6 M Guanidine-HCl in 0.25 M NaOH) overflow cells 1 and 2 prepared the sensor surface for another cycle. Several blank buffer samples were injected (300 s at 30 μL/min) overflow cells 1 and 2 throughout the duration of the experiment and used for reference surface subtraction—each were monitored for the same amount of dissociation time (3420 s) and regenerated under the same conditions as those for the Fab sample injections.

[3] = biological target: T4, GDF15 (ligand used in the GFRAL/RET …); assay: cell-based or functional assay

Row | Binder | Kd (Human GDF15 Fc [1]) [nM] | Kd (Mouse GDF15 Fc) [nM] | Kd (Cyno GDF15 Fc) [nM] | Kd (Human GDF15 Fc [2]) [nM] | koff (Human GDF15 Fc [2]) [s⁻¹] | kon (Human GDF15 Fc [2]) [M⁻¹ s⁻¹] | GDF15 GFRAL RET pERK Fab IC50 pM [3]
1 | GDF15 antibody agent Clone K, Fab (Fab, V domains shown, Fab; CH1 and CL of the Fab not specified; also called Fab of Clone K) VH: QVQLVQSGAEVKKPGASVKVSCKASGYTFTNEGISWVRQAPGQGLEWMGWISAYTADTFYAQKLQGRVTMTTDTSTSTAYMELRSLRSDDTAVYYCARTRHDTSGLRFDYWGQGTLVTVSS VL: DIQMTQSPSSVSASVGDRVTITCRASQGIDSWLAWYQQKPGKAPKLLIYAASSLQSGVPSRFSGSGSGTDFTLTISSLQPEDFATYYCQQVHSFPITFGGGTKVEIK | 2.11 | 333 | 2.4 | 0.23 | 0.00112 | 4.87e+06 | 169 pM
2 | GDF15 antibody agent Clone L, Fab (Fab, V domains shown, Fab; CH1 and CL of the Fab not specified; also called Fab of Clone L) VH: QVQLVQSGAEVKKPGASVKVSCKASGYTFASYDIIWVRQAPGQGLEWMGWISALSGDTVYAQKLQGRVTMTTDTSTSTAYMELRSLRSDDTAVYYCARTRHDTSGIRFDYWGQGTLVTVSS VL: DIQMTQSPSSVSASVGDRVTITCRASQGIDSWLAWYQQKPGKAPKLLIYAASSLQSGVPSRFSGSGSGTDFTLTISSLQPEDFATYYCQQVHSFPITFGGGTKVEIK | 1.58 | 229 | 1.56 | 0.144 | 0.000576 | 3.99e+06 | 2.1 µM

Binders with a lower Kd (Human GDF15 Fc [1]), results first:

Row | Kd (Human GDF15 Fc [1]) [nM] | Kd (Mouse GDF15 Fc) [nM] | Kd (Cyno GDF15 Fc) [nM] | Kd (Human GDF15 Fc [2]) [nM] | koff (Human GDF15 Fc [2]) [s⁻¹] | kon (Human GDF15 Fc [2]) [M⁻¹ s⁻¹] | GDF15 GFRAL RET pERK Fab IC50 pM [3] | Binder
3 | 0.016 | 1.6 | 0.077 | 0.0341 | 7.11e-05 | 2.08e+06 | – | GDF15 antibody agent Clone O, Fab (Fab, V domains shown, Fab; CH1 and CL of the Fab not specified; also called Fab of Clone O) VH: QVQLVQSGAEVKKPGATVKVSCKASGYTFDSLGMSWVRQAPGQGLEWMGYISTYSGDTVYAQKLQGRVTMTTDTSTSTAYMELRSLRSDDTAVYYCARESGQQVSALDPWGQGTLVTVSS VL: DIQMTQSPSSVSASVGDRVTITCRASQGISRWLAWYQQKPGKAPKLLIYAASSLQSGVPSRFSGSGSGTDFTLTISSLQPEDFATYYCQQGASFPLTFGGGTKVEIK
4 | 1.25 | 1.45 | 1.38 | 0.0672 | 0.000259 | 3.85e+06 | 111 pM | GDF15 antibody agent Clone I, Fab (Fab, V domains shown, Fab; CH1 and CL of the Fab not specified; also called Fab of Clone I) VH: QVQLVQSGAEVKKPGASVKVSCKASGYTFTDEGINWVRQAPGQGLEWMGWITAYSGDTVYAQKLQGRVTMTTDTSTSTAYMELRSLRSDDTAVYYCARGPGQYADVDVWGQGTMVTVSS VL: DIQMTQSPSSVSASVGDRVTITCRASQGISSWLAWYQQKPGKAPKLLIYAASSLQSGVPSRFSGSGSGTDFTLTISSLQPEDFATYYCQQANSFPITFGGGTKVEIK
5 | 1.24 | 50.9 | 1.42 | 0.117 | 0.000735 | 6.29e+06 | 24.6 pM | GDF15 antibody agent Clone H, Fab (Fab, V domains shown, Fab; CH1 and CL of the Fab not specified; also called Fab of Clone H) VH: QVQLVQSGAEVKKPGSSVKVSCKASGGTFSSYYISWVRQAPGQGLEWMGGIAPISGTASYAQKFQGRVTITADESTSTAYMELSSLRSEDTAVYYCARGLAYDGYFDLWGRGTLVTVSS VL: not shown
